To fix the notation:
B1: Hairpin Ribozyme (parent)
chain: GUCCUCUUUCACGUGCGCGUGAAAGAGAGAAGUGAACCAGAGAAACACACGUUGUGGUAUAUUACCUGGUA

This series covers variants of B1. Nature of the series: self-cleavage, relative activity (ratio to wild type); higher = more cleavage; co-transcriptional.
In the case of G17U A45C, the self-cleavage came to 0.156.
The figure for C18U A26C is 0.525; for C18A A28G it is 1.43; for C18A A28C it is 0.492.
The value for G19U A23U was 0.944; that for G19U A23C was 0.666.
The figure for C18U C50G is 0.217; for C18G C50U it is 0.24; for G17U U63A it is 0.128.
Take G17U G25C: the self-cleavage worked out at 0.682.
With G17U G25A, the self-cleavage amounted to 0.653.
For the variant G19C U33A, the self-cleavage was 0.125.
The value for G19C U33C was 0.173; that for G17U U60C was 1.35; that for G19A U20G was 0.786.
The figure for G19C A26C is 0.272.
The figure for C18U U55C is 0.318.
In the case of C18U A41U, the self-cleavage came out at 1.21.
The value for G19A A23C was 0.763; that for G19A A23U was 0.711.
The value for G19C A64U was 0.135.
The value for G19C A64C was 0.182; that for C18A C37G was 0.351; that for C18G U70G was 0.537.
Consider G17U G40A, for which the self-cleavage was determined as 0.342.
The value for G17U G40C was 0.18; that for C18A C38G was 0.213; that for C18A C38U was 0.526.
With G17U G42C, the self-cleavage is 0.281.
The value for C18A G51U was 1.12; that for C18A G51C was 0.896; that for G19A U62A was 0.0978.
Turning to G19A U70A, the self-cleavage came to 0.599.
For G19U A41C, the self-cleavage was 0.899.
The value for G19U A41G was 0.913; that for G19A A41G was 0.754.
As to G19U A31C, the self-cleavage worked out at 0.0951.
On to C18A U63A, for which the self-cleavage is 0.13.
The figure for C18A U63G is 0.204.
The value for G19C A44C was 0.152.
The figure for C18A A61U is 0.138; for C18A A61G it is 0.25; for C18A A61C it is 0.132.
Consider C18G U63C, for which the self-cleavage turned out to be 0.276.
The figure for C18G U63G is 0.27.
The figure for G19A C46U is 0.165; for G19A C46A it is 0.176; for G19C A28U it is 0.63.
Regarding C18U G27A, the self-cleavage was determined as 0.433.
As for C18G G27A, the self-cleavage came to 0.407.
The value for C18A G57U was 0.439; that for G19C U70G was 0.695; that for G19C U70C was 0.879.
In the case of G17U G68A, the self-cleavage is 0.258.
With C18U G25A, the self-cleavage stood at 0.703.
For the variant C18U G25C, the self-cleavage is 0.491.
For C18G A24C, the self-cleavage is 0.731.
The value for C18G A24G was 0.927; that for G19U A28G was 1.
On to C18A G32U, for which the self-cleavage was 0.135.
The value for G17U A43C was 0.0947; that for G17U A43U was 0.0903; that for C18U G69A was 0.476.
The figure for C18U U33G is 0.0901; for C18U U33C it is 0.172.
The value for G19A A30U was 0.14.
C18G U20G: the self-cleavage amounted to 0.724.
The value for G19C C65U was 0.337.
The value for C18A A47U was 0.181; that for C18U U53C was 1.03; that for G19C U55A was 0.17.
The figure for G19C U55G is 0.335; for C18U G54C it is 0.543.
For the variant G19C G25C, the self-cleavage was determined as 0.46.
The figure for C18A A41U is 1.37; for G17U U62C it is 0.138.
For G17U A71C, the self-cleavage is 1.39.
As for G17U A31G, the self-cleavage is 0.6.
The value for C18A C65G was 0.091; that for C18A G19U was 0.923.
On to C18U C66U, for which the self-cleavage stood at 0.554.
Take G17U G57A: the self-cleavage is 0.201.
The value for G17U G57C was 0.151; that for G17U G57U was 0.264.
The figure for G19U A35U is 0.626.
With G19U A35G, the self-cleavage is 1.06.
The figure for C18G G51C is 1.01; for G17U A44G it is 0.273; for C18A A31U it is 0.0438.
The figure for C18A A31G is 0.746.
G17U C37U: the self-cleavage stood at 0.564.
For G17U C37G, the self-cleavage is 0.256.
The value for C18G G40C was 0.0865.
With C18G G40U, the self-cleavage came out at 0.187.
The value for G19A C38A was 0.153; that for C18U A47G was 0.15; that for C18A A59C was 0.159.
The figure for G17U C18G is 0.979; for G17U C18U it is 0.926.
For G17U C18A, the self-cleavage came to 0.966.
Regarding C18G A71C, the self-cleavage stood at 1.35.
In the case of G19C A41G, the self-cleavage came out at 0.743.
As to G19C U62G, the self-cleavage stood at 0.282.
Regarding C18G C65A, the self-cleavage was 0.871.
As to C18G C65U, the self-cleavage stood at 0.213.
The value for G19A U33A was 0.0829; that for G19A G54A was 0.51; that for G19A G54U was 0.535.
The value for G19C U20A was 0.965; that for G19C U20G was 1.05; that for G19C U20C was 0.809.
The figure for G19A A22U is 0.531; for G19A A22G it is 0.714.
Regarding C18A C50G, the self-cleavage amounted to 0.309.
The value for G19C G54A was 0.432; that for G19C G69A was 0.403.
The value for G19C G69C was 0.369.
Regarding G17U C48G, the self-cleavage came out at 0.0807.
Turning to G17U C48U, the self-cleavage was determined as 0.11.
With G19A C48U, the self-cleavage is 0.179.
The value for G19A C48G was 0.153; that for G19A A64G was 0.579.
On to G19A G40C, for which the self-cleavage was determined as 0.0669.
The value for C18A A23G was 1.02; that for C18A G21C was 0.885.
Regarding C18A G21A, the self-cleavage is 0.895.
As to C18A A49C, the self-cleavage came out at 0.208.
The value for C18U G51U was 0.993.
In the case of C18A A24G, the self-cleavage came out at 0.95.
G19C G68U: the self-cleavage was 0.213.
The figure for C18A U67A is 0.191; for C18A U67G it is 0.329; for C18U U58A it is 0.657.
The value for C18G U55A was 0.145; that for C18G U55C was 0.233; that for G19C U52C was 0.775.
On to C18A G54U, for which the self-cleavage is 0.62.
For C18G G32C, the self-cleavage came to 0.0857.
The figure for C18U C46A is 0.252; for G17U A59G it is 0.192; for G19C G56C it is 0.124.
G19A G32C: the self-cleavage turned out to be 0.111.
C18A A26G: the self-cleavage is 0.888.
The figure for C18A A26U is 0.898.
The figure for C18A A26C is 0.527; for G17U U20A it is 0.59.
With G19C A23U, the self-cleavage worked out at 0.656.
The value for G19A G21U was 0.727; that for C18A G34C was 1.56; that for C18G G56U was 0.2.
Consider G19A G27C, for which the self-cleavage was determined as 0.321.
For G19A G27A, the self-cleavage worked out at 0.243.
Regarding C18A C46G, the self-cleavage worked out at 0.12.
The figure for C18G A35C is 0.797; for C18U U70G it is 0.973; for C18G A45U it is 0.228.
The figure for G19A A31U is 0.176; for G19A A31C it is 0.136; for G19C A49U it is 0.207.
For the variant G17U G69C, the self-cleavage was determined as 0.296.
Turning to C18U A45U, the self-cleavage amounted to 0.109.
The figure for C18U A45G is 0.174; for G19A G51A it is 1.07; for C18A A45G it is 0.187.
The value for G19A A61C was 0.169.
The value for G19A A49C was 0.131; that for G19A A49U was 0.17.
